Patent US9365836B2, “Glycosyltransferase gene and use thereof” (SUNTORY HOLDINGS LIMITED, priority 2011, dated 2016)

B1: NmGT3: Nemophila glycosyltransferase (SEQ ID NO: 2, cDNA SEQ ID NO: 1) expressed in Escherichia coli, His-Tag purified (protein, listed as Nemophila menziesii)
chain: MPSILSNSAHILLFPFPTSGHIIPILDLANQLLARGLTITILITPANLTLLSTQLIELDRLGSLHTLVLPFPNPPNPSETSLAARVHASSQLSNTIIQWFQSHTSPPVAIVSDFFLGWTNSLASQLGIPRLVFWPSGVQRSSLVDYIWQNDQLSDSDHQIQDNSVISFPDVPNSPAYPKWQACGLSTQYKKGDPSWEFFKNGVLANTQSWGAIYNSFRDLEGVYIDYIKKKMGHGRVWAVGPLLPANDASKRGGSCVMPIDDVMTWLDTKTNSDNSVVYVCFGSRVELTTEQLDSLAAALEISGVHFILCVKLHQEISKEYEDRVAGRGLIIRGWAPQVAILRHRAVGAFLTHCGWNSILEGIAAGVVMLTWPMGADQFTNANLLVDELKVAMKACEGGDSNVPNPAMLANVLAESINGGRAERERVTELCDAALKAVQSGNGSSAKDLDSLTNQLNGLKVKIN
modifications: His-tag
B2: SuGT5: Salvia uliginosa glycosyltransferase (SEQ ID NO: 13, cDNA SEQ ID NO: 12) expressed in Escherichia coli, His-Tag purified (protein, listed as Salvia uliginousa)
chain: MKQLHIALFPSMAHGHMIPMFELAKLFTSRGLKATIIATPAFAAPITKAQQSGLDVGLAITPFPPKGSSLPQNIIAFDQMTNPDLTTSFLRAMELLQEPVEAILQELHPDCLVSDMFLPWTADSAAKFQIPRLAFYGTSYFSRCVSEQVGDKPFNNVTSDSEPVLVPGLPQQIKFVRSQFSPVLLEETQNDFAKLFKQMTEAWKKTYGEVVNSFNELESDYANHYKNVIGRKAWEIGPLLLCSSSKGGEKNQQRGKESAIDEHECLAWLDSKNPNSVVYVCAGSVASFSQAQLRETAMGLEASGQNFVWVVRKNKEDDDDWLPVGFEERVGNRGLIIRGWAPQVMILNHAAVGAFVTHCGWNSTLEGVCAGLPMVTWPVFAEQFFNEKLVTEVLGTGVSVGNKRWMLRESEGVERDAVARAVEEIMVGGGAEEMRSRAENYKEMAKKAVEEGGSSYNNLNALIEELSNYVAPTIQDKN
modifications: His-tag
B3: NmGT4: Nemophila glycosyltransferase (SEQ ID NO: 4, cDNA SEQ ID NO: 3) expressed in Escherichia coli, His-Tag purified (protein, listed as Nemophila menziesii)
chain: MAAQLHVVFFPFMAQGHLIPTLEMVKLFSSRGLKTTIVTTKFYAPAVTKSIEKTKHTGNQINIIIIKFPSAEVGLPEGSESLDKLKSPDMFMKFFKALSLLQEPFEQILQELSPDCIVSDMFFPWTTASAAKFDIPRFVFHGLSLFALCVSENMRFYKPFKNLGSESLDSEPVMLPDFPNQIEFSKVQVPEFEVGESKNEIMELLNQVKESEVKSYGIIINSFNELEKDYVDYYRNVWGRRAWLLGPLSLSNRDDEVKDQTDEHGSLKWLDSKKPDSVIYVCFGSVAPLSSSQLHEIALGLESSGQQFIWVVKEREDGEKWLPEGFEERIKDKGLIIRGWAPQVSILEHESTGGFVTHCGWNSVLEAVSAGVVMATLPTFAEQPFNEKLLTKVLKIGIPIGSPLSNRGKSGVKKEEIAEAMKGIMEGEEALEMRIRAKSLKEMAWKAVEEGGSSYNDLTSLIDGVKAYRSQSNKI
modifications: His-tag

Experiments:
Assay type in all cases: biochemical
[1] = Reactivity to various flavonoid compounds and betanidine (FIG. 13)
[2] = Determination of enzyme activity of His-Tag-purified NmGT3 and NmGT4 protein solutions (HPLC); conditions: for product biosynthesized from apigenin 7-glucoside: substrate 50 ng/μl apigenin 7-glucoside, same condition; for product biosynthesized from apigenin: substrate 500 ng/μl apigenin, UDP-glucose, 30° C., 20 minutes; for product biosynthesized from apigenin 4′-glucoside: substrate apigenin 4′-glucoside, same condition (not shown)
Method: The Escherichia coli strain BL2 in which pET-NmGT3 or pET-NmGT4 described in Example 5 was introduced was cultured, using the Overnight Express Autoinduction System 1 (Novagen) according to a protocol recommended by the manufacturer. With 8 ml of the culture liquid prepared, the transformed Escherichia coli was cultured at 37° C. (about 4 hours) until the OD600 value reached 0.5. To this Escherichia coli solution as the preculture, 200 ml of the culture liquid was added and then subjected to the main culture overnight at 25° C.
The overnight-cultured Escherichia coli solution was centrifuged (1000×g, 4° C., 10 minutes), and the cells collected were suspended in 20 ml of a buffer (composition: NaCl: 0.5 M, Tris HCl (pH 7.9): 20 mM, imidazole: 5 mM, amidinophenyl methanesulfonyl fluoride hydrochloride (APMSF): 10 μM), and Escherichia coli was disrupted by sonication. The cells were then centrifuged (1400×g, 4° C., 20 minutes), and the supernatant was collected. The supernatant was passed through a 0.45 μm filter to His-Tag-purify using the Profinia (Bio-Rad) according to a protocol recommended by the manufacturer. The purified protein solution thus obtained was centrifuged (7500×g, 4° C., 15 minutes) using the Centrifugal filters (Ultracel-10K) (Amicon Ultra), and the concentrated protein solution was termed as “NmGT3 protein solution” and “NmGT4 protein solution”. For centrifugation, the Avanti HP-26 XP (rotor: JA-2) was used (BECKMAN COULTER).
(§1) 20 μl of the protein solution, 20 μl of 5 mM UDP-glucose, 20 μl of 1M Tris HCl (pH 7.5), and 1 μl of 500 ng/μl apigenin were mixed and prepared on ice to 200 μl in water, and the reaction mixture obtained was maintained at 30° C. for 20 minutes. Subsequently, 200 μl of the stopping buffer (a 90% acetonitrile aqueous solution containing 0.1% TFA) was added to stop the reaction, and analyzed with a high performance liquid chromatography (Prominence (Shimadzu)). The detector used is Shimadzu PDA SPD-M10AVP, and the flavone was detected at 330 nm. The column used is Shim-Pack ODS 150 mm×4.6 mm (Shimadzu). In elution, solution A (a 0.1% TFA aqueous solution) and solution B (a 90% methanol aqueous solution containing 0.1% TFA) were used. A linear gradient from a 8:2 mixture of the two solutions to a 3:7 mixture over 10 minutes and then a 3:7 mixture over 6 minutes were used in elution. The flow rate was set at 0.6 ml/minute.

[3] = Determination of enzyme activity of candidate glycosyltransferases, crude enzyme from Escherichia coli (HPLC); conditions: crude enzyme solution, substrate apigenin, UDP-glucose, 30° C., 1 hour
Method: pET-NmGT0 through pET-NmGT9 were introduced into Escherichia coli strain BL2 using the One Shot BL21 (DE3) (Invitrogen) according to a protocol recommended by the manufacturer to obtain transformed Escherichia coli. The Escherichia coli was cultured, using the Overnight Express Autoinduction System 1 (Novagen) according to a protocol recommended by the manufacturer. With 2 ml of the culture liquid prepared, the transformed Escherichia coli was cultured at 37° C. (about 4 hours) until the OD600 value reached 0.5. To this Escherichia coli solution as the preculture, 50 ml of the culture liquid was added and then subjected to the main culture overnight at 27° C. […]
80 μl of the crude enzyme solution, 20 μl of 5 mM UDP-glucose, 20 μl of 1M Tris HCl (pH 7.5), and 1 μl of 500 ng/μl apigenin were prepared on ice to 200 μl in water, and the reaction mixture obtained was maintained at 30° C. for 1 hour. Subsequently, 200 μl of the stopping buffer (a 90% acetonitrile aqueous solution containing 0.1% TFA) was added to stop the reaction, and analyzed with a high performance liquid chromatography (Prominence (Shimadzu)). The detector used is Shimadzu PDA SPD-M10AVP, and the flavone was detected at 330 nm. […]

[4] = Determination of enzyme activity of His-Tag-purified SuGT protein solutions from Salvia uliginosa (HPLC)
Method: Escherichia coli expression constructs (pET-SuGT2, 5, 10) were created in a manner similar to that described in Example 5.
In a manner similar to that described in Example 5, “SuGT2 protein solution”, “SuGT5 protein solution” and “SuGT10 protein solution” were prepared.
as §1, with “20 μl of the protein solution, 20 μl of 5 mM UDP-glucose, 20 μl of 1M Tris HCl (pH 7.5), and 1 μl of 500 ng/μl apigenin were mixed and prepared on ice to 200 μl in water, and the reaction mixture obtained was maintained at 30° C. for 20 minutes.” left out

| Molecule | reactivity to various flavonoid compounds and betanidine [1] | product biosynthesized from apigenin 7-glucoside [2] | product biosynthesized from apigenin [2] | product biosynthesized from apigenin 4′-glucoside [2] | HPLC peaks after reaction of crude enzyme with apigenin [3] | product biosynthesized from apigenin 7-glucoside ([4]; substrate 500 ng/μg apigenin 7-glucoside, same condition) | product biosynthesized from apigenin ([4]; substrate 500 ng/μg apigenin, UDP-glucose, 30° C., 90 minutes) |
| --- | --- | --- | --- | --- | --- | --- | --- |
| B1 | found to have an activity for not only apigenin and its glycosides but for luteolin and its glycosides and flavonol and its glycosides | a flavone exhibiting the same retention time and the same absorption maximum as the purified apigenin 4′,7-diglucoside product was biosynthesized | a flavone exhibiting the same retention time and the same absorption maximum as the purified apigenin 4′,7-diglucoside product had been biosynthesized | a flavone exhibiting the same retention time and the same absorption maximum as the apigenin 4′,7-diglucoside purified product was biosynthesized | peaks other than that of the substrate were observed |  |  |
| B2 | found to have an activity for not only apigenin and its glycosides but for luteolin and its glycosides and flavonol and its glycosides |  |  |  |  | a flavone exhibiting the same retention time and the same absorption maximum as the purified apigenin 4′,7-diglucoside product was biosynthesized | a flavone exhibiting the same retention time and the same absorption maximum as the purified apigenin 4′,7-diglucoside product had been biosynthesized |
| B3 | found to have an activity for not only apigenin and its glycosides but for luteolin and its glycosides and flavonol and its glycosides | a flavone exhibiting the same retention time and the same absorption maximum as the purified apigenin 4′,7-diglucoside product was biosynthesized | a flavone exhibiting the same retention time and the same absorption maximum as the purified apigenin 4′,7-diglucoside product had been biosynthesized | a flavone exhibiting the same retention time and the same absorption maximum as the apigenin 4′,7-diglucoside purified product was biosynthesized | peaks other than that of the substrate were observed |  |  |
